Test results as given in patent publication US20110165066A1.

Assays:
[1] = target: human IL-13 wild type (human) (UniProt P35225); test: cell surface-based receptor binding assay, blocking 125I-IL-13 binding to IL-13Rα2-transfected COS cells
[2] = target: human IL-13 wild type (human) (UniProt P35225); test: ELISA-based receptor binding assay, IL-13 binding to IL-13Rα2/Fc
[3] = target: human IL-13 wild type (human) (UniProt P35225); test: ELISA-based receptor binding assay, blocking biotin-IL-13 binding to IL-13Rα2/Fc
[4] = target: human IL-13 wild type (human) (UniProt P35225); test: SPR (Biacore)
[5] = target: human IL-13 variant (R130Q) (human) (UniProt P35225); test: SPR (Biacore)
human IL-13 variant (R130Q) (human), sequence (P35225 35-146 limits assumed, stated change not applied): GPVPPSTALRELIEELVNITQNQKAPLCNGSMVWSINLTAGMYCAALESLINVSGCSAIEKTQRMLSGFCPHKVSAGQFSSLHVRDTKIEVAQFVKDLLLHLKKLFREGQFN

[6] = target: human IL-13 wild type (human) (UniProt P35225); test: cell surface-based receptor binding assay, IL-13 binding to IL-13Rα2 on COS cells

human IL-13 wild type (human), sequence (P35225 other isoform, or with tags, fused parts or gaps limits assumed): as the sequence (P35225 35-146 limits assumed, stated change not applied) above, with Q110R counted along it

B1: MJ2-7 (antibody, from another filing, V domains shown)
VH: EVQLQQSGAELVKPGASVKLSCTGSGFNIKDTYIHWVKQRPEQGLEWIGRIDPANDNIKYDPKFQGKATITADTSSNTAYLQLNSLTSEDTAVYYCARSEENWYDFFDYWGQGTTLTVSS
VL: DVLMTQTPLSLPVSLGDQASISCRSSQSIVHSNGNTYLEWYLQKPGQSPKLLIYKVSNRFSGVPDRFSGSGSGTDFTLKISRVEAEDLGVYYCFQGSHIPYTFGGGTKLEIK
B1 showed an IC50 [1] of 17.6 nM, a % inhibition at 100 nM [2] of 60% and an IC50 [3] of 19 nM. For the same binder, the Kd [4] was 1.14 nM, the Kd [5] was 0.79 nM and the % inhibition at 100 nM [6] was 70%.
